Results: patent publication US20240124556A1, “KERATIN BD-3, PREPARATION METHOD THEREFOR AND PHARMACEUTICAL COMPOSITION AND USE THEREOF” (INSTITUTE OF MATERIA MEDICA, CHINESE ACADEMY OF MEDICAL …, priority 2019, published 2024)

Experiments:
[1] = test system: yeast-induced fever model in SD rats; assay: Yeast-induced fever model of SD rats; type: in vivo; conditions: for Body temperature 2 hours after modeling / Body temperature 8 hours after modeling / Body temperature 4 hours after modeling / Body temperature 6 hours after modeling: 20% yeast s.c.; for Body temperature 2 hours after modeling: model group 37.5 ± 0.1; for Body temperature 8 hours after modeling: model group 37.6 ± 0.1; for Body temperature 4 hours after modeling / Body temperature 6 hours after modeling: model group 37.7 ± 0.1
Experimental: • Animals: 230-260 grams of male SD rats; • Medicines: yeast (OXOID LP0021), aspirin (SIGMA A2093), protein BD-3; • Instruments: electronic balance (SARTORIUS BP121S type), electronic clinical thermometer (CITIZEN CT-513W type). • Experiment grouping: • Normal control group; • Model group: yeast fever model; • Positive control group: Aspirin 300 mg/kg group; • Protein BD-3, 10 mg/kg group, 50 mg/kg group. • Method:
Preparation of experimental animals: After the experimental animals adapt to the experimental environment (temperature 22° C.±2° C., relative humidity 50%±2%) for 1 day. Pre-adaptation to measure rectal temperature at 8:00 and 15:00, rats were fasted and water was taken freely 12 h before experiment, and let the animal to empty its feces before measuring the rectal temperature. Apply petroleum jelly to the electronic thermometer probe before each temperature measurement. Insert the rat rectum 2 cm (can be marked at 2 cm to ensure that the depth of each insertion is consistent), and record the body temperature after the reading is stable.
Subcutaneous injection of dry yeast to replicate rat fever model: The body temperature of the rats was measured before modeling. Qualified rats with a body temperature of 36.2-37.3° C. were selected and randomly divided into groups with 8 rats in each group. After oral administration of aspirin and different doses of protein BD-3, 20% yeast suspension (10 ml/kg) was injected subcutaneously immediately, and the normal control group was injected intraperitoneally with an equal volume of normal saline. The body temperatures of the rats were monitored after 2 hours for a total of 8 hours.
According to the body temperature measured at each time point on the day of the experiment, calculate the mean, standard deviation and standard error of the body temperature of each group of rats. The data of each group was compared with TTEST, and P<0.05 was considered as a significant difference.

[2] = test system: cough induced by ammonia water in mice; assay: Antitussive test, cough induced by ammonia water in mice; type: in vivo, ICR mice; conditions: for Incubation period (cough) / Number of coughs: X ± SEM; for Incubation period (cough): solvent control 26.9 ± 2.3; for Number of coughs: within 2 minutes, solvent control 67.1 ± 5.7
Experimental: • Animals: male ICR mice; • Drugs and reagents: dextromethorphan hydrobromide, ammonia water, 0.2% CMC-Na, protein BD-3; • Apparatus: Compressed nebulizer (403T type), balance (XS105DU type). • Experiment grouping: • Solvent control group; • Dextromethorphan 15 mg/kg group; • Protein BD-3, 20 mg/kg group, 50 mg/kg group.
Dextromethorphan and different doses of protein BD-3 (administration volume 10 ml/kg) were given orally in groups, and the solvent control group was given the same volume of distilled water. One hour later, mice were put into a sealed box and atomized 10% ammonia water for 10 seconds, and then observed and recorded the incubation period of cough in mice and the number of coughs in 2 minutes.
Record the time point of oral administration, the time point of atomization experiment, the incubation period of mice cough and the number of coughs within 2 minutes, respectively. The incubation period of cough refers to the number of seconds from the start of the atomization of ammonia to the occurrence of cough. The performance of coughing in mice is based on contraction of their abdominal muscles (breast contraction) and opening their mouths at the same time. Calculate the mean and standard error of each group of data, and use TTEST to compare the model group with other groups, and P<0.05 is considered as a significant difference.

[3] = test system: PLO-induced epilepsy in mice; assay: Pilocarpine (PLO) induced convulsive epilepsy in mice; type: in vivo, ICR mice; conditions: for mortality rate / Grade IV seizure rate / Cases of Grade IV / Cases of deaths: PLO 225 mg/kg i.p.; for mortality rate / Cases of deaths: model group 0; for Grade IV seizure rate: model group 80%; for Cases of Grade IV / Cases of deaths: of 10 mice; for Cases of Grade IV: 30 min observation, model group 8; for Grade IV seizure incubation period / Grade II seizure incubation period / Grade III seizure incubation period: mean ± SEM; for Grade IV seizure incubation period: maximum recorded 1800 seconds, model group 894 ± 164; for Grade II seizure incubation period: model group 86 ± 5; for Grade III seizure incubation period: model group 142 ± 6
Experimental: • Animals: male ICR mice; • Drugs: Pilocarpine HCl (PLO, pilocarpine, pilocarpine hydrochloride), Diazepam (diazepam tablets), protein BD-3. • Experiment grouping: • Model group: • Diazepam 2 mg/kg group; • Protein BD-3, 50 mg/kg group, 200 mg/kg group.
The drug was administered once in the afternoon the day before modeling, PLO-225 mg/kg (modeling agent) was injected intraperitoneally 1 hour after the test drug was administered intragastrically on the day of modeling. And positive drug can be administered once 20 minutes before modeling. Observe for 30 minutes after PLO injection.
Observation indicators: (1)Seizure situation: the time of seizures from Grade II to Grade IV; (2)the time to death.
Seizure grade: Refer to Racine grading standard: Grade 0: No response; Grade I: manifested as twitching of facial muscles or the corners of the mouth; Grade II: can nod; Grade III: twitching of one limb; Grade IV: rigidity or body twitching; Grade V: generalized epilepsy (generalized tonic seizures).
Count the number of Grade IV seizures and deaths in each group of mice in the experiment; Grade II, III and IV incubation period. […] Chi-square test was used for statistics of the number of cases. The mean value and standard error of the incubation period were calculated, and TTEST was used to compare the model group with other groups. P<0.05 was considered as a significant difference.

[4] = summary statement, no dose given

B1: BD-3: recombinant keratin, amino acid sequence SEQ ID NO:1, expressed in E. coli, band around 43 kD; tested material prepared in Example 4 (protein, listed as Bos taurus)
chain: MSYSCCLPNLSFRSSCSSRPCVPSSCCGTTLPGACNIPANVGSCNWFCEGSFNGSEKETMQFLNDRLASYLEKVRQLERDNAELESRILERSQQKILANKAENARLVVQIDNAKLAADDFRTKYQTELGLRQLVESDINGLRRILDELTLCKSDLEAQVESLKEELICLKQNHEQEVNTLRSQLGDRLNVEVDAAPTVDLNRVLNETRAQYEALVETNRRDVEEWYIRQTEELNKQVVSSSEQLQSYQAEIIELRRTVNALEVELQAQHNLRDSLENTLTETEARYSCQLAQVQGLIGNVESQLAEIRSDLERQNQEYQVLLDVRARLECEINTYRGLLDSEDCKLPCNPCATTNASSVGSCVTNPCTPCGPRSRFGPCNTFGC
Body temperature 2 hours after modeling ([1]; BD-3 10 mg/kg oral): 37.0 ± 0.2 °C
Body temperature 8 hours after modeling ([1]; BD-3 10 mg/kg oral): 37.4 ± 0.1 °C
Body temperature 4 hours after modeling ([1]; BD-3 10 mg/kg oral): 37.3 ± 0.1 °C
Body temperature 6 hours after modeling ([1]; BD-3 10 mg/kg oral): 37.4 ± 0.1 °C
Body temperature 2 hours after modeling ([1]; BD-3 50 mg/kg oral): 36.9 ± 0.1 °C
Body temperature 8 hours after modeling ([1]; BD-3 50 mg/kg oral): 37.3 ± 0.1 °C
Body temperature 4 hours after modeling ([1]; BD-3 50 mg/kg oral): 37.2 ± 0.1 °C
Body temperature 6 hours after modeling ([1]; BD-3 50 mg/kg oral): 37.4 ± 0.1 °C
Effect on body temperature of model rats (in words) ([1]; different doses of BD-3 (10 mg/kg, 50 mg/kg), at 2 hours and 4 hours after modeling, P<0.05 vs model group): can significantly inhibit the increase in body temperature of model rats
Summary: antipyretic effect in yeast fever model (in words) [1, 4]: can significantly inhibit the increase in body temperature at 2 hours and 4 hours after modeling
Incubation period (cough) ([2]; BD-3 20 mg/kg oral): 31.6 ± 3.3 s
Number of coughs ([2]; BD-3 20 mg/kg oral): 46.7 ± 4.1
Number of coughs vs solvent control (in words) ([2]; BD-3 20 mg/kg, P<0.05): significant improvement in the number of coughs
Incubation period (cough) ([2]; BD-3 50 mg/kg oral): 34.2 ± 2.1 s
Number of coughs ([2]; BD-3 50 mg/kg oral): 53.6 ± 3.7
Cough incubation period vs solvent control (in words) ([2]; BD-3 50 mg/kg, P<0.05): significant improvement in the incubation period
Summary: antitussive effect (in words) [2, 4]: can significantly extend the incubation period, significantly reduce the number of coughs
Epilepsy Grade IV incubation period vs model group (in words) ([3]; BD-3 50 mg/kg): statistically different from the model group
mortality rate ([3]; BD-3 50 mg/kg intragastric): 0
Grade IV seizure rate ([3]; BD-3 50 mg/kg intragastric): 30%
Cases of Grade IV ([3]; BD-3 50 mg/kg intragastric): 3
Cases of deaths ([3]; BD-3 50 mg/kg intragastric): 0
Grade IV seizure incubation period ([3]; BD-3 50 mg/kg): 1573 ± 138 s
Grade II seizure incubation period ([3]; BD-3 50 mg/kg): 91 ± 6 s
Grade III seizure incubation period ([3]; BD-3 50 mg/kg): 155 ± 12 s
Epilepsy Grade III incubation period vs model group (in words) ([3]; BD-3 200 mg/kg): statistically different from the model group
mortality rate ([3]; BD-3 200 mg/kg intragastric): 0
Grade IV seizure rate ([3]; BD-3 200 mg/kg intragastric): 60%
Cases of Grade IV ([3]; BD-3 200 mg/kg intragastric): 6
Cases of deaths ([3]; BD-3 200 mg/kg intragastric): 0
Grade IV seizure incubation period ([3]; BD-3 200 mg/kg): 1181 ± 203 s
Grade II seizure incubation period ([3]; BD-3 200 mg/kg): 99 ± 5 s
Grade III seizure incubation period ([3]; BD-3 200 mg/kg): 183 ± 12 s
Summary: effect on epilepsy incubation period, PLO model (in words) [3, 4]: can significantly prolong the incubation period of class III and class IV epilepsy in mice
